# ± gives the uncertainty stated by the source.
# B1: Probable E3 ubiquitin-protein ligase MID2, residues 191 to 235; numbered along this chain, Q9UJV3 (parent)
# chain: RGITCLDHENEKVNMYCVSDDQLICALCKLVGRHRDHQVASLNDR
# Variants of: B1
# Assay: abundance fitness (aPCA) (normalised: wild type 0, dead -1); higher = more abundant; growth selection in yeast, the domain comes from the species named
# Settings: Homo sapiens
row,Variant,abundance fitness
1,RGITCLDHENEKVNMYCVSDDQLICALCKLVGRHRDHYVASLNDR [Q38Y],-0.16 ± 0.21
2,RGITCLDHENEKVNMYCVSDDQLICALCKLVGRHRDHRVASLNDR [Q38R],-0.002 ± 0.053
3,RGITCLDHENEKVNMYCVSDDQLICALCKLVGRHRDHCVASLNDR [Q38C],-0.152 ± 0.1
4,RGITCLDHENEKVNMYCVSDDQLICALCKLVGRHRDHLVASLNDR [Q38L],-0.259 ± 0.067
5,RGITCLDHENEKVNMYCVSDDQLICALCKLVGRHRDHGVASLNDR [Q38G],-0.191 ± 0.052
6,RGITCLDHENEKVNMYCVSDDQLICALCKLVGRHRDHVVASLNDR [Q38V],0.005 ± 0.059
7,RGITCLDHENEKVNMYCVSDDQLICALCKLVGRHRDHNVASLNDR [Q38N],-0.104 ± 0.2
8,RGITCLDHENEKVNMYCVSDDQLICALCKLVGRHRDHTVASLNDR [Q38T],-0.195 ± 0.1
9,RGITCLDHENEKVNMYCVSDDQLICALCKLVGRHRDHFVASLNDR [Q38F],-0.69 ± 0.18
10,RGITCLDHENEKVNMYCVSDDQLICALCKLVGRHRDHIVASLNDR [Q38I],-0.357 ± 0.21
11,RGITCLDHENEKVNMYCVSDDQLICALCKLVGRHRDHEVASLNDR [Q38E],0.105 ± 0.054
12,RGITCLDHENEKVNMYCVSDDQLICALCKLVGRHRDHWVASLNDR [Q38W],-0.369 ± 0.098
13,RGITCLDHENEKVNMYCVSDDQLICALCKLVGRHRDHDVASLNDR [Q38D],0.117 ± 0.089
14,RGITCLDHENEKVNMYCVSDDQLICALCKLVGRHRDHPVASLNDR [Q38P],-0.092 ± 0.056
15,RGITCLDHENEKVNMYCVSDDQLICALCKLVGRHRDHMVASLNDR [Q38M],-0.25 ± 0.085
16,RGITCLDHENEKVNMYCVSDDQLICALCKLVGRHRDHAVASLNDR [Q38A],-0.113 ± 0.073
17,RGITCLDHENEKVNMYCVSDDQLICALCKLVGRHRDHQCASLNDR [V39C],-0.014 ± 0.1
18,RGITCLDHENEKVNMYCVSDDQLICALCKLVGRHRDHQIASLNDR [V39I],-0.153 ± 0.095
19,RGITCLDHENEKVNMYCVSDDQLICALCKLVGRHRDHQMASLNDR [V39M],-0.129 ± 0.095

row,Variant,abundance fitness
1,RGITCLDHENEKVNMYCVSDDQLICALCKLVGRHRDHQSASLNDR [V39S],0.082 ± 0.11
2,RGITCLDHENEKVNMYCVSDDQLICALCKLVGRHRDHQKASLNDR [V39K],-0.449 ± 0.17
3,RGITCLDHENEKVNMYCVSDDQLICALCKLVGRHRDHQHASLNDR [V39H],0.067 ± 0.15
4,RGITCLDHENEKVNMYCVSDDQLICALCKLVGRHRDHQGASLNDR [V39G],-0.191 ± 0.054
5,RGITCLDHENEKVNMYCVSDDQLICALCKLVGRHRDHQQASLNDR [V39Q],-0.081 ± 0.086
6,RGITCLDHENEKVNMYCVSDDQLICALCKLVGRHRDHQDASLNDR [V39D],-0.258 ± 0.071
7,RGITCLDHENEKVNMYCVSDDQLICALCKLVGRHRDHQYASLNDR [V39Y],-0.335 ± 0.2
8,RGITCLDHENEKVNMYCVSDDQLICALCKLVGRHRDHQRASLNDR [V39R],-0.319 ± 0.055
9,RGITCLDHENEKVNMYCVSDDQLICALCKLVGRHRDHQWASLNDR [V39W],-0.23 ± 0.076
10,RGITCLDHENEKVNMYCVSDDQLICALCKLVGRHRDHQLASLNDR [V39L],-0.079 ± 0.062
11,RGITCLDHENEKVNMYCVSDDQLICALCKLVGRHRDHQTASLNDR [V39T],0.06 ± 0.063
12,RGITCLDHENEKVNMYCVSDDQLICALCKLVGRHRDHQEASLNDR [V39E],-0.143 ± 0.068
13,RGITCLDHENEKVNMYCVSDDQLICALCKLVGRHRDHQPASLNDR [V39P],-0.249 ± 0.13
14,RGITCLDHENEKVNMYCVSDDQLICALCKLVGRHRDMQVASLNDR [H37M],-0.684 ± 0.1
15,RGITCLDHENEKVNMYCVSDDQLICALCKLVGRHRDLQVASLNDR [H37L],-0.584 ± 0.11
16,RGITCLDHENEKVNMYCVSDDQLICALCKLVGRHRDQQVASLNDR [H37Q],-0.365 ± 0.093
17,RGITCLDHENEKVNMYCVSDDQLICALCKLVGRHRDAQVASLNDR [H37A],-0.313 ± 0.065
18,RGITCLDHENEKVNMYCVSDDQLICALCKLVGRHRDYQVASLNDR [H37Y],-0.519 ± 0.12
19,RGITCLDHENEKVNMYCVSDDQLICALCKLVGRHRDGQVASLNDR [H37G],-0.283 ± 0.056

row,Variant,abundance fitness
1,RGITCLDHENEKVNMYCVSDDQLICALCKLVGRHRDTQVASLNDR [H37T],-0.295 ± 0.065
2,RGITCLDHENEKVNMYCVSDDQLICALCKLVGRHRDIQVASLNDR [H37I],-1.04 ± 0.31
3,RGITCLDHENEKVNMYCVSDDQLICALCKLVGRHRDKQVASLNDR [H37K],0.271 ± 0.068
4,RGITCLDHENEKVNMYCVSDDQLICALCKLVGRHRDRQVASLNDR [H37R],-0.492 ± 0.061
5,RGITCLDHENEKVNMYCVSDDQLICALCKLVGRHRDSQVASLNDR [H37S],-0.482 ± 0.091
6,RGITCLDHENEKVNMYCVSDDQLICALCKLVGRHRDDQVASLNDR [H37D],-0.274 ± 0.09
7,RGITCLDHENEKVNMYCVSDDQLICALCKLVGRHRDHQVASFNDR [L42F],-0.133 ± 0.16
8,RGITCLDHENEKVNMYCVSDDQLICALCKLVGRHRDHQVASMNDR [L42M],-0.031 ± 0.06
9,RGITCLDHENEKVNMYCVSDDQLICALCKLVGRHRDHQVASRNDR [L42R],-0.095 ± 0.06
10,RGITCLDHENEKVNMYCVSDDQLICALCKLVGRHRDHQVASGNDR [L42G],-0.071 ± 0.055
11,RGITCLDHENEKVNMYCVSDDQLICALCKLVGRHRDHQVASKNDR [L42K],-0.054 ± 0.073
12,RGITCLDHENEKVNMYCVSDDQLICALCKLVGRHRDHQVASQNDR [L42Q],-0.134 ± 0.078
13,RGITCLDHENEKVNMYCVSDDQLICALCKLVGRHRDHQVASCNDR [L42C],0.269 ± 0.14
14,RGITCLDHENEKVNMYCVSDDQLICALCKLVGRHRDHQVASNNDR [L42N],0.045 ± 0.13
15,RGITCLDHENEKVNMYCVSDDQLICALCKLVGRHRDHQVASANDR [L42A],0.118 ± 0.056
16,RGITCLDHENEKVNMYCVSDDQLICALCKLVGRHRDHQVASDNDR [L42D],-0.046 ± 0.1
17,RGITCLDHENEKVNMYCVSDDQLICALCKLVGRHRDHQVASENDR [L42E],0.091 ± 0.14
18,RGITCLDHENEKVNMYCVSDDQLICALCKLVGRHRDHQVASPNDR [L42P],-0.363 ± 0.21
19,RGITCLDHENEKVNMYCVSDDQLICALCKLVGRHWDHQVASLNDR [R35W],-0.602 ± 0.093
